Experimental data from publication PMC12546588 (Nature Communications, 2025).
Each block holds one binder with its values, some of them ahead of it.

Tests used:
[1] = molecular target: human TRPC3 channel (hTRPC3), WT full length, tetramer in nanodiscs (human, UniProt Q13507); test: cryo-EM structure
[2] = molecular target: the molecule itself; test: cryo-EM structure

stoichiometry N [1]: 4 nanobody molecules per hTRPC3 tetramer
B1: Nanobody 1-25 (VHH)
VHH: QVQLQESGGGSVQSGGSLRLSCAASGDKNYYMGWFRQAPGKEREGVAAIKSDGETRYADSSVTGRFTISQDNAKKTLYLQMTSLKPEDTAMYYCAADRYIGTRWKYVRPEDYSYWGQGTQVTVSS

stoichiometry N [1]: 2 nanobody molecules per hTRPC3 tetramer
B2: Nanobody 3-37 (VHH)
VHH: QVQLQESGGGSVQSGGSLRLSCAASGYTYSRSCLGWFRQAPGKERERVATIDSDGSTSYADSVKGRFTISQDNAKNTLYLQMNSLKSEDTAMYYCASKYGSRCQNSLGYMYRGQGTQVTVSS

stoichiometry N [1]: 4 nanobody molecules per hTRPC3 tetramer
B3: Nanobody 1-94 (VHH)
VHH: QVQLQESGGGSVQSGGSLRLSCAASGYTYSYSGYCMGWFRQAPGKEREGVATIDGAGNTKYADSVKGRFTISRDNAKKTLYLQMNSLKPEDTAMYYCAARVYSYSSDVDCRPSFTTRFPYSGQGTQVTV

B4: human TRPC3 channel (hTRPC3), WT full length, tetramer in nanodiscs (natural protein, UniProt Q13507 86-921, looked up)
chain: MREKGRRQAVRGPAFMFNDRGTSLTAEEERFLDAAEYGNIPVVRKMLEESKTLNVNCVDYMGQNALQLAVGNEHLEVTELLLKKENLARIGDALLLAISKGYVRIVEAILNHPGFAASKRLTLSPCEQELQDDDFYAYDEDGTRFSPDITPIILAAHCQKYEVVHMLLMKGARIERPHDYFCKCGDCMEKQRHDSFSHSRSRINAYKGLASPAYLSLSSEDPVLTALELSNELAKLANIEKEFKNDYRKLSMQCKDFVVGVLDLCRDSEEVEAILNGDLESAEPLEVHRHKASLSRVKLAIKYEVKKFVAHPNCQQQLLTIWYENLSGLREQTIAIKCLVVLVVALGLPFLAIGYWIAPCSRLGKILRSPFMKFVAHAASFIIFLGLLVFNASDRFEGITTLPNITVTDYPKQIFRVKTTQFTWTEMLIMVWVLGMMWSECKELWLEGPREYILQLWNVLDFGMLSIFIAAFTARFLAFLQATKAQQYVDSYVQESDLSEVTLPPEIQYFTYARDKWLPSDPQIISEGLYAIAVVLSFSRIAYILPANESFGPLQISLGRTVKDIFKFMVLFIMVFFAFMIGMFILYSYYLGAKVNAAFTTVEESFKTLFWSIFGLSEVTSVVLKYDHKFIENIGYVLYGIYNVTMVVVLLNMLIAMINSSYQEIEDDSDVEWKFARSKLWLSYFDDGKTLPPPFSLVPSPKSFVYFIMRIVNFPKCRRRRLQKDIEMGMGNSKSRLNLFTQSNSRVFESHSFNSILNQPTRYQQIMKRLIKRYVLKAQVDKENDEVNEGELKEIKQDISSLRYELLEDKSQATEELAILIHKLSEKLNPSMLRCE
stoichiometry N [2]: 4 subunits
